Sequences and labels used below:
B1: 10F7 scFv (tested as anti-CD38 CARs, versions V1, V2 and V3) (scFv)
scFv: QAYLQQSGAELVRSGASVKMSCKASGYTFTSYNMHWVKQTPGQGLEWIGYIYPGNGGTNYNQKFKDKATLTADTSSSTAYMQISSLTSEDSAVYFCARGGQLGRPWFAYWGQGTLVTVSAGGGGSGGGGSGGGGSNIVLTQSPASLAASPGQRATISCRASESVDSYGNTFMYWYQQKPGQPPKLLIYLASNLESGVPVRFSGSGSRTDFTLTIDPVEADDAATYYCQQNNEDPWTFGGGTKVEIK
B2: 25A10 scFv (tested as anti-CD38 CARs, versions V1, V2 and V3) (scFv)
scFv: EVQLQQSGAELVRPGASVKLSCTASGFNIKDSLIHWVKQRPEQGLEWIGWIDPEDDKTKYAPKFQDKATLTADTSSNTAYLQLSTLTSEDTAIYYCVSRYINYYFAYWGQGTTLTVSSGGGGSGGGGSGGGGSDIVMTQSPSSLTVTAGEKVTMSCKSSQSLLHSGNQRNYLTWYQQKPGQPPKLLIYWASTRESGVPDRFTGSGSGTDFTLTISSVQAEDLAVYYCQNDYDYPYTFGGGTKLEIK
B3: 13F11 scFv (tested as anti-CD38 CARs, versions V1, V2 and V3) (scFv)
scFv: QIQLVQSGPELKKPGETVKISCKASGYTFKKYGMNWVKQAPGKGLKWMGWINTNTGEPTYAEEFKGRFAFSLETSASTAYLQINNLKNEDTATYFCARWYYGSTPSSYTMDYWGQGTSVTVSSGGGGSGGGGSGGGGSETTVTQSPASLSVATGEKVTIRCITSTDIDDDMNWYQQKPGEPPKVLISEGNTLRPGVPSRFSSSGYGTDFVFTIENTLSEDVADYYCLQSNNMPYTFGGGTKLEIK
B4: GMB005 scFv (tested as anti-CD38 tool CARs, versions V1, V2 and V3) (scFv)
scFv: EVQLLESGGGLVQPGGSLRLSCAVSGFTFNSFAMSWVRQAPGKGLEWVSAISGSGGGTYYADSVKGRFTISRDNSKNTLYLQMNSLRAEDTAVYFCAKDKILWFGEPVFDYWGQGTLVTVSSASGGGGSGGGGSGGGGSEIVLTQSPATLSLSPGERATLSCRASQSVSSYLAWYQQKPGQAPRLLIYDASNRATGIPARFSGSGSGTDFTLTISSLEPEDFAVYYCQQRSNWPPTFGQGTKVEIK
B5: 29B4 scFv (tested as anti-CD38 CARs, versions V1, V2 and V3) (scFv)
scFv: EVQLVESGGGLVKPGGSLKLSCAASGFTFSDYFMYWVRQTPEKRLEWVAIISDGGIYTYYPDSVKGRFTISRDNAKNNLYLQMSSLKSEDTAMYYCARDGRDDYDGWYFDVWGAGTTVTVSSGGGGSGGGGSGGGGSDIVMTQSHKFMSTSVGDRVNITCKASQDVNTAVAWYQQKPGQSPKLLIYWASTRHAGVPDRFTGSGSGTDYALTISSVQAEDLALYYCQQHYSTPRTFGGGTKLEIK
B6: 27B6 scFv (tested as anti-CD38 CARs, versions V1, V2 and V3) (scFv)
scFv: QVQLKQSGPGLVQPSQSLSITCTVSGFSLTSYNIDWVRQSPGKGLEWLGVIWSGGSTDYNAAFISRLKISKDDSKSQVFFKMNSLQSDDTAIYYCARHSPLVSTPDWYFDVWGAGTTVTVSSGGGGSGGGGSGGGGSQIVLTQSPAIMSASPGEKVTMTCSTSSSVSYMHWYQQKSGTSPKRWIYDTSKLASGVPARFSGSGSGTSYSLTINNMEAEDAATYSCQQWSSYPPTFGGGTKLEIK
B7: 16B5 scFv (tested as anti-CD38 CARs, versions V1, V2 and V3) (scFv)
scFv: QAYLQQSGAELVRSGASVKMSCKASGYTFTSYNLHWVKQTPGQGLEWIGYIYPGNGGTNYNQKFKGKATLTADTSSSTAYMQISSLTSEDSAVYFCARGGIYYYGSSLDYWGQGTTLTVSSGGGGSGGGGSGGGGSNIVLTQSPASLAVSLGQRATISCRASESVDNYGTTFMYWYQQKPGQPPKLLIYLASNLESGVPARFSGSGSGTDFTLTIDPVEADDAATYYCQQNKEDPWTFGGGTKLEIK

The values below come from US20180236053A1 (published 2018).

The target of this test is CD38 antigen on the surface of cells (U266 CD38+, MOLP8, Daudi, T-ALL cell lines, activated T cells) (human, UniProt P28907 1-300).
In the case of B1, the Kd was found to be 30 nM.

On to B2, for which binding was characterised by a dissociation constant (Kd) of 0.25 nM.

As for B3, the Kd was 0.8 nM.

B4 returned a Kd of 119 nM.

B5: the Kd came to 0.52 nM.

Regarding B6, binding was put at a Kd of 2.2 nM.

For B7, the Kd was found to be 3.2 nM.

The term Kd denotes the free concentration of one partner at which half of the binding sites on the other are occupied at equilibrium, for simple one-to-one binding. Low values mean higher affinity, high ones lower affinity.
